# According to the supplement of paper PMC10126150:
# ± gives the standard deviation of the averaged measurements.
# System: ATP
# Experiment: switch fluorescence ratio, 500 uM ATP over buffer (Cy3 cluster intensity, sum of 5 cycles each) (fold (ratio)); higher = stronger signal-on switching upon ATP binding; sequences stand for … in TCGTCGGCAGCGTCAGATGTGTATAAGAGACAGTTTTTTTTTTTTTTTTTTTTTTTTT…TC
# Conditions: aptamer strand: ATP DNA aptamer (quencher-CACCTGGGGGAGTATTGCGGAGGAAGG + anchor), 100 nM annealed; ATP concentration: 500 uM
# Summary of the method: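 Cy3-labelled switching-strand clusters on a modified Illumina MiSeq flow-cell were annealed to 100 nM quencher-labelled ATP aptamer, imaged in selection buffer, then imaged after 15 min with 500 uM ATP at 22 °C. Five buffer/ATP cycles ran, with NaOH stripping and re-annealing between them. The fluorescence ratio is summed target-cycle over summed buffer-cycle Cy3 intensity per cluster, averaged per switch-domain sequence. Clusters outside 100-1000 RFU were excluded.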
# 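Note: ATP exposure 15 min at 22 °C before imaging.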
row,Sequence,switch fluorescence ratio
1,TTGATTCGT,0.99 ± 0.02
2,ATTTTGGCGT,0.982 ± 0.037
3,TCATATTGAT,0.984 ± 0.051
4,TTGCAAGAGG,1.02 ± 0.024
5,TCGGAATGGC,1.27 ± 0.23
6,TCTTATTGGG,0.995 ± 0.042
7,TTAAAAGTAT,1.01 ± 0.043
8,CTGTTTCCGA,1.03 ± 0.052
9,TTTGGTGGTT,1.03 ± 0.059
10,TCATATTCTA,0.9849 ± 0.0019
11,AGTGAGAGGG,0.966 ± 0.051
12,TATAAGATTA,1.015 ± 0.0027
13,GCGAAGGGGT,1.02 ± 0.031
14,CACTAATGAG,1.0254 ± 0.00028
15,TAACGTCCAG,0.978 ± 0.012
16,TTTGTAGCAC,1.31 ± 0.072
17,TGGTAAATCG,1.03 ± 0.038
18,CATGTTAGGG,1.01 ± 0.033
19,AAAACGCAGG,1.02 ± 0.053
20,TGTTTTTAGT,0.9945 ± 0.0039
21,GAACCATGTT,0.977 ± 0.014
22,TGTAGTAGCA,1.04 ± 0.034
23,CAAGTTATAC,1.38 ± 0.15
24,GGTGACCGTT,0.992 ± 0.012
25,AATTAGTTAT,0.9835 ± 0.0033

row,Sequence,switch fluorescence ratio
1,AAAGTGCTCC,1.095 ± 0.0075
2,GAGGTCGTAA,1.05 ± 0.051
3,AGGGTTAGTT,1.01 ± 0.013
4,GGGAGTACGT,1 ± 0.019
5,ATACTGGGGT,1.04 ± 0.056
6,TGCGGGCTAG,1.01 ± 0.015
7,ATTTCAGAGG,1.02 ± 0.017
8,TGTAAACCGG,1.07 ± 0.042
9,TGGGTGCTGA,0.954 ± 0.052
10,AGCCTCGGTT,1.0014 ± 0.00098
11,CGTCATCAGG,1.042 ± 0.0069
12,TCGTTTGGGT,0.978 ± 0.035
13,ACTACGCCCG,1.37 ± 0.085
14,GCGTGGAGGA,1.05 ± 0.026
15,TGAGCACAGG,1.455 ± 0.0091
16,ATCGGGGTGG,1 ± 0.071
17,AATCGGGTCT,0.999 ± 0.015
18,CGTTGTTCGT,1 ± 0.0015
19,AGTTATACAC,1.014 ± 0.0099
20,ATGAACGTTT,1.2 ± 0.28
21,GATCTTTTCG,1.01 ± 0.037
22,TTTGGCTTGC,1.01 ± 0.042
23,TCGGTTTCAA,1.009 ± 0.0056
24,AGGAATGGGA,1.02 ± 0.02
25,CCCGGGAGGT,1.035 ± 0.0094

row,Sequence,switch fluorescence ratio
1,GGGGAAACAA,0.99 ± 0.024
2,ATGGGCTGAA,1.021 ± 0.0092
3,ACTAAGGGG,1.25 ± 0.35
4,AGAGACATGC,0.923 ± 0.085
5,CGTAGTTTTG,1.007 ± 0.0074
6,ATTGGTGTAA,1.01 ± 0.015
7,TTAAGTGAC,1.06 ± 0.028
8,GCGTATTGGC,1.03 ± 0.013
9,TTTGAACTTC,1.27 ± 0.38
10,ATTATTATGG,1.01 ± 0.015
11,GTTAGCACCC,1.04 ± 0.04
12,GGTACTTTGT,1.03 ± 0.039
13,TACTTTTCAA,1.01 ± 0.011
14,GGATTTTTTT,1 ± 0.032
15,GTAGGCCATG,1 ± 0.022
16,GGTCTCTGGA,1.01 ± 0.06
17,TAGGATGGCT,0.959 ± 0.072
18,GCATTATCTA,1.01 ± 0.07
19,CATCATGTCT,1.01 ± 0.03
20,TTTGTAGAGC,1.05 ± 0.063
21,GGTTAATTGG,0.99 ± 0.047
22,ATTTAATCCT,1.09 ± 0.038
23,TGAGTGTGAG,0.985 ± 0.035
24,GCGTTAAGCA,0.968 ± 0.07
25,CCAGCGGGGC,1.05 ± 0.019

row,Sequence,switch fluorescence ratio
1,ACTTCGGGGC,1.12 ± 0.027
2,TTGAGCGAGG,0.961 ± 0.01
3,AAGAACCCAG,1.05 ± 0.025
4,AATGTCAGAG,0.986 ± 0.02
5,TGGGGGAACT,0.996 ± 0.019
6,TGATGATCC,1.01 ± 0.042
7,TTTTGCATGA,1 ± 0.043
8,TCAGGTGTGA,1.27 ± 0.025
9,CGTACTGGAG,1.01 ± 0.056
10,TCTGGTAGTG,1.03 ± 0.035
11,GCAGTAGTTG,1.01 ± 0.026
12,AAATGGAGGA,0.988 ± 0.032
13,AGCCTAGTTC,1.01 ± 0.026
14,TTGTTCGGGA,1.016 ± 0.0094
15,CGGGAGGGGA,1 ± 0.025
16,CATTTCACGC,1.0996 ± 0.00041
17,CAGGGCGGGC,0.84 ± 0.073
18,CTATTGAATC,1.022 ± 0.0015
19,TAAGCTGGTA,0.995 ± 0.036
20,GCAATAGTGG,1.25 ± 0.025
21,CTTCGTGGCC,1.04 ± 0.036
22,GATGGGTATA,1.0016 ± 0.00067
23,TTTAAGAGTG,0.992 ± 0.0031
24,AAAGAACGCT,1.04 ± 0.015
25,CCCACCGGGC,1.05 ± 0.022
